Results published in the RNAGym collection of RNA variant scans (doi:10.7554/elife.80360).

B1: HDV Ribozyme (parent)
chain: GGCCGGCAUGGUCCCAGCCUCCUCGCUGGCGCCGGCUGGGCAACAUUCCGAGGGGACCGUCCCCUCGGUAAUGGCGAAUGGGACCCA

Variants of: B1
Assay: self-cleavage, relative activity (ratio to wild type); higher = more cleavage; co-transcriptional

In order of falling self-cleavage:
1. G59C U69A  1.27
2. U60G A71C  1.21
3. G59A G76U  1.21
4. U60C G68U  1.2
5. C58U U60G  1.2
6. C58A C86A  1.19
7. C58A U60C  1.17
8. G59C U60G  1.16
9. U60C G76C  1.16
10. G59A U65C  1.14
11. G59U U69G  1.14
12. C58G C61A  1.14
13. G59U A71G  1.13
14. G59C U69G  1.11
15. U60A G68U  1.11
16. U60A U65G  1.09
17. G59C A87C  1.08
18. G59U G76U  1.08
19. C58U G76A  1.08
20. U60A U65C  1.08
21. U60G C64A  1.07
22. C58U G68U  1.07
23. G59A C63A  1.07
24. G59U C62U  1.07
25. U60C C62G  1.07
26. G59C A70C  1.07
27. G59C C86G  1.06
28. C58G C85A  1.05
29. U60C G76U  1.05
30. U60C G76A  1.05
31. C58A G68U  1.04
32. G59C A70U  1.03
33. C58U G76U  1.02
34. G59C C61U  1.01
35. C58U C86A  1.01
36. G59C U65C  1.01
37. G59C C86U  1.01
38. U60A G76A  1
39. U60C C62U  0.997
40. G59C A87G  0.99
41. G59C U79A  0.987
42. C58U C63A  0.986
43. G59U C66G  0.981
44. G59U G68C  0.973
45. G59C C61A  0.969
46. C58U C86U  0.969
47. U60C C85G  0.965
48. C58U U69G  0.965
49. C58A C85G  0.957
50. G59C C85G  0.955
51. C58U G68C  0.95
52. U60G A70C  0.95
53. G59C C85A  0.937
54. G59U C85U  0.935
55. C58U G76C  0.935
56. C58U A77G  0.929
57. G59C C61G  0.927
58. U60G A87G  0.921
59. U60G A71U  0.918
60. G59C U72C  0.917
61. G59C A83G  0.917
62. U60A G68A  0.917
63. G59C C86A  0.914
64. G59U U65G  0.914
65. G59C C84A  0.912
66. G59U U65A  0.912
67. U60G A70G  0.911
68. C58A C86G  0.909
69. G59C C63G  0.909
70. G59C G68A  0.906
71. C58U G82A  0.906
72. C58U C86G  0.895
73. U60C C86U  0.88
74. C58A C85A  0.877
75. C58G A87G  0.874
76. U60C C84G  0.856
77. G59A G76C  0.854
78. U60A C86G  0.851
79. G59U U69A  0.85
80. G59C A71G  0.831
81. C58A U60G  0.831
82. U60G A87C  0.831
83. C58U C63G  0.831
84. U60C C86A  0.831
85. G59U C62A  0.831
86. U60C G68A  0.81
87. G59A U65G  0.801
88. C58A U79A  0.789
89. C58G A83U  0.776
90. G59U U72G  0.776
91. U60C C64G  0.776
92. G59C C84U  0.774
93. G59C U72A  0.773
94. U60C U72G  0.767
95. U60C U72A  0.755
96. U60C G68C  0.755
97. G59U C85A  0.749
98. G59U C62G  0.748
99. G59A A83G  0.748
100. U60A A71C  0.73
101. G59C U79G  0.712
102. U60G A83G  0.712
103. C58U G73A  0.7
104. G59U C85G  0.695
105. G59U U79G  0.692
106. C58U A83G  0.681
107. C58U A77U  0.68
108. G59C A71C  0.677
109. G59C U72G  0.675
110. U60C A71U  0.665
111. C58G A83G  0.633
112. C58A G82A  0.614
113. G59U G73C  0.614
114. G59U U72C  0.599
115. G59A A83U  0.59
116. C58U U72A  0.58
117. G59U U79C  0.563
118. G59A A83C  0.554
119. G59U G73U  0.516
120. G59U A77U  0.47
121. U60A U72G  0.467
122. G59A G82A  0.466
123. G59U A77C  0.453
124. C58U A83U  0.453
125. G59C U79C  0.431
126. C58U U72G  0.431
127. U60C G82A  0.427
128. U60G A83U  0.415
129. U60A U72C  0.415
130. C58U U72C  0.415
131. G59C G81U  0.415
132. C58U A83C  0.403
133. C58A G81U  0.397
134. C58G A83C  0.386
135. C58U G82C  0.386
136. C58G G81C  0.364
137. G59U G81A  0.361
138. U60A G82U  0.35
139. G59U A83C  0.34
140. C58A G74C  0.324
141. C58U A78C  0.305
142. C58U C75U  0.302
143. U60A G80U  0.299
144. G59U G80A  0.295
145. C58U A78U  0.277
146. U60C G82C  0.269
147. C58G G81U  0.26
148. G59A G81U  0.249
149. G59C C75U  0.233
150. U60G C75A  0.229
151. G59A G81C  0.228
152. G59A G80C  0.226
153. G59U G81C  0.223
154. G59A G82C  0.208
155. C58G C75A  0.196
156. G59U G80U  0.19
157. G59C C75G  0.189
158. G59A C75G  0.177
159. G59A C75A  0.163
160. G59A C75U  0.159
161. U60A G82C  0.148
162. C58A G81C  0.128
163. C58G C75U  0.122
164. U60G C75G  0.119
165. C58G G74C  0.101
166. U60A C75G  0.0978
167. C58U C75A  0.095
